B1: Hairpin Ribozyme (parent)
chain: GUCCUCUUUCACGUGCGCGUGAAAGAGAGAAGUGAACCAGAGAAACACACGUUGUGGUAUAUUACCUGGUA

Variants of: B1
Assay: self-cleavage, relative activity (ratio to wild type); higher = more cleavage; co-transcriptional

Variant	self-cleavage
G34U C50A	1.13
G34U C65G	1.35
G34U G40A	0.751
G34U G40C	0.232
G34U G42C	1.17
G34U G51A	1.57
G34U G56U	0.225
G34U G68C	0.686
G34U G68U	0.95
G34U U52C	0.926
G34U U52G	0.896
G34U U55A	1.48
G34U U55G	1.27
G34U U58C	1.53
G34U U58G	1.25
G34U U60A	1.52
G34U U62C	1.23
G34U U63A	0.243
G34U U67G	0.658
G34U U70A	1.43
G34U U70C	1.43
A35C A36C	0.517
A35C A39U	0.445
A35C A41C	1.13

Variant	self-cleavage
A35C A41G	0.907
A35C A43G	0.155
A35C A43U	0.194
A35C A45C	0.16
A35C A47G	0.195
A35C A47U	0.179
A35C A49C	0.147
A35C A49G	0.341
A35C A61U	0.125
A35C A71U	0.668
A35C C37A	0.269
A35C C37U	0.486
A35C C38G	0.112
A35C C38U	0.312
A35C C46U	0.221
A35C C48A	0.103
A35C C50A	0.364
A35C C65G	0.387
A35C C65U	0.433
A35C G40A	0.208
A35C G42C	0.505
A35C G51A	1.26
A35C G54C	0.513
A35C G56A	0.161

Variant	self-cleavage
A35C G56U	0.153
A35C G69A	0.378
A35C G69C	0.126
A35C U52A	1.14
A35C U53G	0.403
A35C U63C	0.0565
A35C U67A	0.301
A35G A36G	0.749
A35G A39U	0.265
A35G A41G	0.814
A35G A41U	1.28
A35G A43G	0.082
A35G A43U	0.223
A35G A44C	0.211
A35G A44G	0.177
A35G A44U	0.14
A35G A45C	0.106
A35G A45G	0.0332
A35G A47C	0.312
A35G A47G	0.142
A35G A47U	0.178
A35G A59G	0.266
A35G A59U	0.229
A35G A64G	0.277

Variant	self-cleavage
A35G A71U	0.837
A35G C37U	0.302
A35G C48G	0.213
A35G C50U	0.355
A35G C66A	0.156
A35G C66G	0.127
A35G G40A	0.24
A35G G40U	0.161
A35G G42U	0.304
A35G G54U	0.513
A35G G56C	0.0996
A35G G68A	0.309
A35G G69A	0.204
A35G G69C	0.204
A35G G69U	0.285
A35G U52C	1.29
A35G U55A	0.292
A35G U58A	0.73
A35G U60C	0.917
A35G U62A	0.368
A35G U62C	0.338
A35G U67A	0.201
A35G U67C	0.0903
A35G U67G	0.206

Variant	self-cleavage
A35G U70A	0.927
A35G U70C	0.796
A35G U70G	0.711
A35U A39C	0.208
A35U A41U	1.41
A35U A43G	0.0794
A35U A44G	0.234
A35U A45U	0.151
A35U A47G	0.137
A35U A47U	0.185
A35U A49C	0.17
A35U A59G	0.18
A35U A61U	0.0854
A35U C37G	0.194
A35U C48A	0.186
A35U C48G	0.215
A35U C48U	0.162
A35U C50A	0.295
A35U C50G	0.369
A35U C65A	0.625
A35U G42A	0.181
A35U G42C	0.246
A35U G54U	0.455
A35U G68A	0.29

Variant	self-cleavage
A35U G69A	0.184
A35U G69U	0.111
A35U U52A	0.715
A35U U52C	0.811
A35U U52G	0.553
A35U U58A	0.464
A35U U60C	0.559
A35U U63A	0.227
A35U U63G	0.147
A35U U67C	0.176
A36C A43G	0.131
A36C A45G	0.133
A36C A47G	0.0823
A36C A49C	0.144
A36C A49G	0.28
A36C A59G	0.203
A36C A61G	0.148
A36C A64C	0.11
A36C C46G	0.134
A36C C46U	0.15
A36C C48A	0.142
A36C C48G	0.118
A36C C65A	0.52
A36C C66U	0.264

Variant	self-cleavage
A36C G40C	0.135
A36C G40U	0.122
A36C G51U	0.678
A36C G57A	0.125
A36C G57C	0.17
A36C G69A	0.24
A36C G69U	0.227
A36C U52C	0.556
A36C U53C	0.953
A36C U60A	0.439
A36C U62C	0.192
A36C U62G	0.0267
A36C U63G	0.0757
A36C U70G	0.671
A36G A41G	0.536
A36G A44C	0.0853
A36G A44G	0.276
A36G A47C	0.372
A36G A47U	0.127
A36G A49C	0.0302
A36G A59C	0.102
A36G A59G	0.146
A36G A59U	0.0811
